In patent US20240255509A1, “COMPOSITIONS AND METHODS RELATED TO K180 DIMETHYLATED H1.0 PROTEIN” (Aelan Cell Technologies, Inc., priority 2016, published 2024):

Experiments:
Test in all cases: In vitro methylation with GLP, products identified by LC-MS
Type in all cases: biochemical
[1] = biological target: T1, unmodified H1.0 peptide ([…] (SEQ ID NO:42)) (Homo sapiens, UniProt P07305); details: 10 U enzyme, 3.2 mM S-Adenosyl-L-Methionine, 37° C. 1 hour, spectral counts
T1 construct: purchased ThermoFisher Scientific (peptide); NEB (G9A) M0235S (G9A)
Protocol: (§1) In order to identify the precise sites of methylation by G9A and GLP methyltransferases on histone H1.0, in vitro methylation assays were performed and subsequently analyzed by Liquid Chromatography and High-resolution Mass Spectrometry (LC-MS) analysis. Methylation reactions were set up using either G9A methyltransferase (NEB, M0235S, Lot #0031201) or GLP methyltransferase (Cayman Chemical, 10755). The methyl donor in each reaction was unlabeled S-Adenosyl-L-Methionine (NEB, B9003S). […]
(§2) For the Liquid Chromatography and High-resolution Mass Spectrometry (LC-MS) analysis, samples were prepared as described above and about 1 μg o the product was injected onto a Thermo Scientific Easy nLC system configured with a 10 cm×100 um trap column and a 25 cm×100 um ID resolving column. […] This ensured optimal full-scan data for quantification. […]
(§3) Protein identification was performed using Thermo Scientific Proteome Discoverer version 1.4 (including Sequest and Percolator algorithms) using RefSeqHuman sequence database. […] Protein quantification was performed using Pinpoint version 1.4 software. The Pinpoint quantification workflow included importing the Proteome Discoverer .msf files as spectral libraries. Identified peptides were subsequently quantified in MS .raw files using the Pinpoint peak finding, chromatographic alignment and area calculation algorithms. […]

[2] = biological target: T2, K180 dimethylated H1.0 peptide (SEQ ID NO:3) (Homo sapiens, UniProt P07305); details: K180 dimethylated peptide as substrate
T2 construct: purchased ThermoFisher Scientific (peptide); Cayman Chemical (GLP) 10755 (GLP)
Protocol: as §1, §2, §3

[3] = biological target: T3, recombinant human H1.0 protein (Homo sapiens, UniProt P07305); details: 1 μg full-length protein
T3 construct: full-length recombinant human H1.0 (NEB, M2501S); purchased NEB M2501S (H1.0); M0235S (G9A)
Protocol: as §1, §2, §3

B1: GLP: recombinant G9A-like protein (GLP) methyltransferase (Cayman Chemical, 10755) (protein, UniProt Q9H9B1 2-1298, looked up)
Histone-lysine …: AAADAEAVPARGEPQQDCCVKTELLGEETPMAADEGSAEKQAGEAHMAADGETNGSCENSDASSHANAAKHTQDSARVNPQDGTNTLTRIAENGVSERDSEAAKQNHVTADDFVQTSVIGSNGYILNKPALQAQPLRTTSTLASSLPGHAAKTLPGGAGKGRTPSAFPQTPAAPPATLGEGSADTEDRKLPAPGADVKVHRARKTMPKSVVGLHAASKDPREVREARDHKEPKEEINKNISDFGRQQLLPPFPSLHQSLPQNQCYMATTKSQTACLPFVLAAAVSRKKKRRMGTYSLVPKKKTKVLKQRTVIEMFKSITHSTVGSKGEKDLGASSLHVNGESLEMDSDEDDSEELEEDDGHGAEQAAAFPTEDSRTSKESMSEADRAQKMDGESEEEQESVDTGEEEEGGDESDLSSESSIKKKFLKRKGKTDSPWIKPARKRRRRSRKKPSGALGSESYKSSAGSAEQTAPGDSTGYMEVSLDSLDLRVKGILSSQAEGLANGPDVLETDGLQEVPLCSCRMETPKSREITTLANNQCMATESVDHELGRCTNSVVKYELMRPSNKAPLLVLCEDHRGRMVKHQCCPGCGYFCTAGNFMECQPESSISHRFHKDCASRVNNASYCPHCGEESSKAKEVTIAKADTTSTVTPVPGQEKGSALEGRADTTTGSAAGPPLSEDDKLQGAASHVPEGFDPTGPAGLGRPTPGLSQGPGKETLESALIALDSEKPKKLRFHPKQLYFSARQGELQKVLLMLVDGIDPNFKMEHQNKRSPLHAAAEAGHVDICHMLVQAGANIDTCSEDQRTPLMEAAENNHLEAVKYLIKAGALVDPKDAEGSTCLHLAAKKGHYEVVQYLLSNGQMDVNCQDDGGWTPMIWATEYKHVDLVKLLLSKGSDINIRDNEENICLHWAAFSGCVDIAEILLAAKCDLHAVNIHGDSPLHIAARENRYDCVVLFLSRDSDVTLKNKEGETPLQCASLNSQVWSALQMSKALQDSAPDRPSPVERIVSRDIARGYERIPIPCVNAVDSEPCPSNYKYVSQNCVTSPMNIDRNITHLQYCVCIDDCSSSNCMCGQLSMRCWYDKDGRLLPEFNMAEPPLIFECNHACSCWRNCRNRVVQNGLRARLQLYRTRDMGWGVRSLQDIPPGTFVCEYVGELISDSEADVREEDSYLFDLDNKDGEVYCIDARFYGNVSRFINHHCEPNLVPVRVFMAHQDLRFPRIAFFSTRLIEAGEQLGFDYGERFWDIKGKLFSCRCGSPKCRHSSAALAQRQASAAQEAQEDGLPDTSSAAAADPL
peptides dimethylated at H1.0K180, % of all peptides [1]: 96.6% | peptides further methylated (H1.0K180 and H1.0K174), % of peptides [2]: 1.02% | sites of methylation on full-length H1.0 [3]: methylates a large number of lysine residues on the C-terminal tail of H1.0, lacking the specificity of G9A
